From patent publication US20220017636A1 (Amgen, published 2022)

Tests used:
Assay in all cases: flow cytometry, peptide-loaded T2 cells;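 note: binding of single-chain Fv antibody constructs, raised in XenoMouse, to peptide-pulsed T2 cells measured by flow cytometry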
[1] = target: T1, MAGEB2 peptide … (SEQ ID NO: 1) complexed with HLA-A*02:01 on the cell surface (human)
T1 construct: whole, on cells; also called pMAGE-HLA; MAGEB2 pMHC
Procedure: (§1) Binding of pMAGE-HLA scFv constructs, generated from the XenoMouse, on peptide loaded T2 cells was evaluated by flow cytometry.

[2] = target: T2, STXBP5 peptide complexed with HLA-A*02:01 on T2 cells (human)
T2 construct: whole, on cells
Procedure: as §1

[3] = target: T3, MB peptide complexed with HLA-A*02:01 on T2 cells (human)
T3 construct: whole, on cells
Procedure: as §1

[4] = target: T4, DPYSL4 peptide complexed with HLA-A*02:01 on T2 cells (human)
T4 construct: whole, on cells
Procedure: as §1

[5] = target: T5, SLK peptide complexed with HLA-A*02:01 on T2 cells (human)
T5 construct: whole, on cells
Procedure: as §1

[6] = target: T6, MYOF peptide complexed with HLA-A*02:01 on T2 cells (human)
T6 construct: whole, on cells
Procedure: as §1

[7] = target: T7, KEA peptide complexed with HLA-A*02:01 on T2 cells (human)
T7 construct: whole, on cells
Procedure: as §1

[8] = target: T8, ADF peptide complexed with HLA-A*02:01 on T2 cells (human)
T8 construct: whole, on cells
Procedure: as §1

[9] = target: T9, CNDP2 peptide complexed with HLA-A*02:01 on T2 cells (human)
T9 construct: whole, on cells; also called CNPD2
Procedure: as §1

[10] = target: T10, COX14 peptide complexed with HLA-A*02:01 on T2 cells (human)
T10 construct: whole, on cells
Procedure: as §1

B1: 18081-H11 (scFv)
scFv: EVQLLESGPALVKPTQTLTLTCTFSGFSFTTHKMGVDWIRQPPGKALEWLALIYWNDDKRYSPSLQSRLTITKDTSKNQVVLTMTNMDPVDTATYYCAYRRYNWNYENWFDPWGQGTLVTVSSGGGGSGGGGSGGGGSELQMTQSPSSLSASVGDRVTITCQASQDISNYLNWYQQKPGKAPKLLIYAASSLQSGVPSRFSGSGSGTDFTLTISSLQPEDFATYYCQQSYTTPFTFGPGTKVEIK
notes: scFv in bacterial lysate, detected with anti-Flag M2
Question: What does the source list for B1?
Answer: Signal/background [1]: 32; Signal/background [2]: 0.9; Signal/background [3]: 1; Signal/background [4]: 1; Signal/background [5]: 1.1; Signal/background [6]: 1.1; Signal/background [7]: 0.9; Signal/background [8]: 0.9; Signal/background [9]: 0.9; Signal/background [10]: 1

B2: 18089-C9 (scFv)
scFv: EVQLLESGPTLVKPTQTLTLTCTFSGFSFTTHKMGVDWIRQPPGKALEWLALIYWNDDKRYSPSLQSRLTITKDTSKNQVVLTMTNMDPVDTATYYCAYRRYNWNYENWFDPWGQGTLVTVSSGGGGSGGGGSGGGGSELQMTQSPSSLSASVGDRVTITCRASQFISSYLNWYQQKPGKAPKLLIYAASSLQSGVPSRFSGRGSGTDFTLTISSLQPEDFATYYCQQSYSTPFTFGPGTKVEIK
notes: as for B1
Question: For B2, which Signal/background [1] is on record?
Answer: 39

Question: What about the Signal/background [2] of the same binder?
Answer: 1

Question: What about the Signal/background [3] of the same binder?
Answer: 1.1

Question: What about the Signal/background [4] of the same binder?
Answer: 0.9

Question: What about the Signal/background [5] of the same binder?
Answer: 1.1

Question: And the Signal/background [6]?
Answer: 1

Question: And the Signal/background [7]?
Answer: 1

Question: What about the Signal/background [8] of the same binder?
Answer: 1

Question: And the Signal/background [9]?
Answer: 1

Question: And the Signal/background [10]?
Answer: 1

B3: 18089-D11 (scFv)
scFv: EVQLLESGPVLVKPTQTLTLTCTFSGFSFTTHKMGVDWIRQPPGKALEWLALIYWNDDKRYNPSLQSRLTITKDTSKNQVVLTMTNMDPVDTATYYCAYRRYNWNYENWFDPWGQGTLVTVSSGGGGSGGGGSGGGGSELVMTQSPSSLSASVGDRVTITCRASQSISNYFNWYQQKPGKAPKLLIYAASSLQSGVPSRFSGSGSGTDFTLTISSLQPEDFATYYCQQSYITPFTFGGGTKLEIK
notes: as for B1
Question: B3 was tested. Which Signal/background [1] did it give?
Answer: 78

Question: And the Signal/background [2]?
Answer: 1.1

Question: And the Signal/background [3]?
Answer: 1.2

Question: What about the Signal/background [4] of the same binder?
Answer: 1.1

Question: And the Signal/background [5]?
Answer: 1.2

Question: What about the Signal/background [6] of the same binder?
Answer: 1.1

Question: What about the Signal/background [7] of the same binder?
Answer: 1

Question: What about the Signal/background [8] of the same binder?
Answer: 1.1

Question: What about the Signal/background [9] of the same binder?
Answer: 1

Question: What about the Signal/background [10] of the same binder?
Answer: 1.1

B4: 18081-E7 (scFv)
scFv: EVQLLESGPGLVKPSETLSLTCTVSGDSISSSRYYWGWIRQPPGKGLEWIGSIYYSGSTYYNPSLKSRVTISVDTSKNQFSLKLSSVTAADTAVYYCARGIFGVITYFDYWGQGTLVTVSSGGGGSGGGGSGGGGSELVMTQTPDSLAVSLGERATINCKSSQSVLYSSNNKNYLAWYQQKPGQPPKLLIYWASTRESGVPDRFSGSGSGTDFTLTISSLQAEDVAVYYCQQYYSTPLTFGGGTKVEIK
notes: as for B1
Question: What does the source list for B4?
Answer: Signal/background [1]: 298; Signal/background [2]: 1.1; Signal/background [3]: 1; Signal/background [4]: 1.2; Signal/background [5]: 1.4; Signal/background [6]: 1.1; Signal/background [7]: 1; Signal/background [8]: 1; Signal/background [9]: 1; Signal/background [10]: 1.1

B5: 18081-B9 (scFv)
scFv: EVQLLESGPGLVKPSETLSLTCTVSGDSISSSRYYWGWIRQPPGKGLEWIGSIYYSGSTYYNPSLKSRVTISVDTSKNQFSLKLSSVTAADTAVYYCARGIFGVITYFDYWGQGTLVTVSSGGGGSGGGGSGGGGSELVMTQSPDSLAVSLGERATINCKSSQSVLYSSNNKNYLAWYQQKPGQPPKLLIYWASTRESGVPDRFSGSGSGTDFTLTISSLQAEDVAVYYCQQFYSTPITFGQGTRLEIK
notes: as for B1
Question: How did the Signal/background [1] turn out when B5 was run?
Answer: 153

Question: And the Signal/background [2]?
Answer: 1

Question: What about the Signal/background [3] of the same binder?
Answer: 1.1

Question: And the Signal/background [4]?
Answer: 1.1

Question: And the Signal/background [5]?
Answer: 1.1

Question: What about the Signal/background [6] of the same binder?
Answer: 1.1

Question: And the Signal/background [7]?
Answer: 1.1

Question: What about the Signal/background [8] of the same binder?
Answer: 1

Question: And the Signal/background [9]?
Answer: 1

Question: And the Signal/background [10]?
Answer: 1

B6: 18179-D7 (scFv)
scFv: EVQLLESGGGLVQPGGSLRLSCAASGFTFSNAWMSWVRQAPGKGLEWVGRIKGNTYGGTTDYAAPVKGRFTISRDDSKNTLFLQMNSLKTEDTAVYYCTTPSYSGSYYNYFSVMDVWGQGTTVTVSSGGGGSGGGGSGGGGSELVMTQSPSSLSASVGDRVTITCRTSQSISSYLNWYQQKPGRAPKLLIFAASSLQGGVPSRFSGSGSGTDFTLTISSLQPEDFATYYCQQTYSMPFTFGPGTKVDIK
notes: as for B1
Question: B6 was tested. Which Signal/background [1] did it give?
Answer: 281

Question: What about the Signal/background [2] of the same binder?
Answer: 1

Question: And the Signal/background [3]?
Answer: 1

Question: And the Signal/background [4]?
Answer: 1.1

Question: And the Signal/background [5]?
Answer: 1.1

Question: And the Signal/background [6]?
Answer: 1

Question: What about the Signal/background [7] of the same binder?
Answer: 1

Question: What about the Signal/background [8] of the same binder?
Answer: 1

Question: What about the Signal/background [9] of the same binder?
Answer: 1.1

Question: What about the Signal/background [10] of the same binder?
Answer: 1

B7: 18179-B12 (scFv)
scFv: EVQLLESGGGLVQPGGSLRLSCAASGFTFSNAWMSWVRQAPGKGLEWVGRIKGNTYGGTTDYAAPVKGRFTISRDDSKNTLFLQMNSLKTEDTAVYYCTTPSNSGSYYNYFSVMDVWGQGTTVTVSSGGGGSGGGGSGGGGSELVMTQSPSSLSASVGDRVTITCRTSQSISSYLNWFQQKPGKAPKLLIFAASSLQSGVPSRFSGSGSGTDFTLTISSLQPEDFATYYCQQTYSMPFTFGPGTKVEIK
notes: as for B1
Question: What does the source list for B7?
Answer: Signal/background [1]: 368; Signal/background [2]: 1; Signal/background [3]: 1; Signal/background [4]: 1; Signal/background [5]: 1; Signal/background [6]: 1; Signal/background [7]: 1; Signal/background [8]: 1; Signal/background [9]: 1; Signal/background [10]: 1

B8: 18179-D11 (scFv)
scFv: EVQLLESGGGLVKPGGSLRLSCAASGFTFSNAWMSWVRQAPGKGLEWVGRIKGNTYGGTTDYAAPVKGRFTISRDDSKNTLFLQMNSLKTEDTAVYYCTTPSYSGSYYNYFSVMDVWGQGTTVTVSSGGGGSGGGGSGGGGSELQMTQSPSSLSASVGDRVTITCRTSQSISSYLNWYQQKPGRAPKLLIFAASSLQGGVPSRFSGSGSGTDFTLTISSLQPEDFATYYCQQTYSMPFTFGPGTKVDIK
notes: as for B1
Question: With B8 as the binder, how does the Signal/background [1] read?
Answer: 345

Question: What about the Signal/background [2] of the same binder?
Answer: 1

Question: And the Signal/background [3]?
Answer: 1

Question: And the Signal/background [4]?
Answer: 1.1

Question: And the Signal/background [5]?
Answer: 1

Question: And the Signal/background [6]?
Answer: 1.1

Question: What about the Signal/background [7] of the same binder?
Answer: 1

Question: And the Signal/background [8]?
Answer: 1

Question: What about the Signal/background [9] of the same binder?
Answer: 1

Question: And the Signal/background [10]?
Answer: 1

B9: 18179-A7 (scFv)
scFv: EVQLLESGGGLVKPGGSLRLSCAASGFTFSNAWMSWVRQAPGKGLEWVGRIKGNTYGGTTDYAAPVKGRFTISRDDSKNTLFLQMNSLKTEDTAVYYCTTPSYSGSYYNYFSVMDVWGQGTTVTVSSGGGGSGGGGSGGGGSELVMTQSPSSLSASVGDRVTITCRTSQSISSYLNWYQQKPGRAPKLLIFAASSLQGGVPSRFSGSGSGTDFTLTISSLQPEDFATYYCQQTYSMPFTFGPGTKVDIK
notes: as for B1
Question: B9 was tested. Which Signal/background [1] did it give?
Answer: 267

Question: What about the Signal/background [2] of the same binder?
Answer: 1

Question: What about the Signal/background [3] of the same binder?
Answer: 1.1

Question: What about the Signal/background [4] of the same binder?
Answer: 1

Question: What about the Signal/background [5] of the same binder?
Answer: 1

Question: What about the Signal/background [6] of the same binder?
Answer: 1

Question: What about the Signal/background [7] of the same binder?
Answer: 0.9

Question: What about the Signal/background [8] of the same binder?
Answer: 1

Question: What about the Signal/background [9] of the same binder?
Answer: 1

Question: What about the Signal/background [10] of the same binder?
Answer: 1
